From patent US6958236B2, “Control of gene expression in plants” (priority 2000, dated 2005) come the findings set out here.

In the data set the test system is pCGS206 (luciferase reporter with response elements for the GAL4 DNA binding domain). The data set can be described thus: Maize BMS cells bombarded with GAL4 luciferase reporter and receptor vector, GUS-normalized luciferase. Format: cell-based. As to conditions: for Experiment #1 RLU / Experiment #2 RLU: Example 28, GUS-normalized; for Experiment #1 Luciferase / Experiment #2 Luciferase / Experiment #1 Fold Induction / Experiment #2 Fold Induction: Example 26; for Experiment #1 Fold Induction / Experiment #2 Fold Induction: + 10 μM Teb vs without; for Fold Induction with Teb Relative to Receptor with EtOH / Fold Induction with Teb Relative to Reporter with EtOH: 20 μM Teb; for Normalized Average (EtOH): unliganded background. On the procedure:
Maize BMS (Black Mexican Sweet) cultured cells are transfected with pCGS206 and pCGS208 by high velocity microprojectile bombardment. In addition, an expression plasmid containing the maize ubiquitin promoter driving the expression of β-glucuronidase (GUS) is added to the transfection to serve as an internal control to normalize against variations among the samples.
Transfections are treated and cell lysates are made essentially as described in U.S. Pat. No. 5,880,333. […] Both luciferase and GUS assays are performed with 20 μl of cell lysate for each assay using the Promega Luciferase Kit (Promega cat #E1500) and GUS-Light Kit (Tropix) respectively. Relative light units are determined using a Turner Designs TD 20/20 luminometer.
In addition to tebufenozide, methoxytebufenozide (“MethoxyTeb”) is also capable of inducing gene expression in maize BMS cells. Both pCGS206 and pCGS208 are transfected as described above and methoxytebufenozide is added in place of tebufenozide at 25 μM and 10 μM.
Maize BMS cells are transfected and assayed as in Example 12.
Transformation of maize suspension cells, chemical treatment, and reporter activity assays are performed as described in Example 12. Maize BMS (Black Mexican Sweet) cultured cells are transfected with pCGS206 (pBS-bz1TATA/intronLUC), pCGS203 (G(M)MV), pCGS672 (G(M)MC), and pCGS678 (G(M)MD) by high velocity microprojectile bombardment. In addition, an expression plasmid containing the maize ubiquitin promoter driving the expression of β-glucuronidase (GUS) is added to the transfection to serve as an internal control to normalize against variations among the samples.
Maize BMS cells are bombarded with reporter vector pCGS206 and chimeric receptors and treated with tebufenozide essentially as described in Example 12. Transfections are treated and cell lysates are made essentially as described in U.S. Pat. No. 5,880,333. […] Both luciferase and GUS assays are performed with 20 μl of cell lysate for each assay using the Promega Luciferase Kit (Promega cat #E1500) and GUS-Light Kit (Tropix) respectively. Relative light units (RLU) are determined using a Turner Designs TD 20/20 luminometer.

The mark [1] stands for this setting: BMS cells, reporter pCGS206, no ligand.
The mark [2] stands for this setting: Example 24, Experiment 1, BMS cells.
[3] abbreviates: Example 24, Experiment 2, BMS cells.

B1: GV(M)M: EcR chimera: GAL4 DBD, internal VP16, Manduca D and E domains; SEQ ID NO:147-148 (protein)
chain: MQQLYVDFFSPAFIRYLFAWYCFFCRCSPCCLVLLLQGSATMKLLSSIEQACDICRLKKLKCSKEKPKCAKCLKNNWECRYSPKTKRSPLTRAHLTEVESRLERLEQLFLLIFPREDLDMILKMDSLQDIKALLTGLFVQDNVNKDAVTDRLASVETDMPLTLRQHRISATSSSEESSNKGQRQLTVSTRMRPECVVPESTCKLAPPTDVSLGDELHLDGEDVAMAHADALDDFDLDMLGDGDSPGPGFTPHDSAPYGALDMADFEFEQMFTDALGIDEYGGNTCKNKRREKEAQREKDKLPVSTTTVDDHMPAIMQCDPPPPEAARIHEVVPRFLTEKLMEQNRLKNVTPLSANQKSLIARLVWYQEGYEQPSEEDLKRVTQTWQLEEEEEEETDMPFRQITEMTILTVQLIVEFAKGLPGFSKISQSDQITLLKASSSEVMMLRVARRYDAATDSVLFANNQAYTRDNYRKAGMSYVIEDLLHFCRCMYSMSMDNVHYALLTAIVIFSDRPGLEQPLLVEEIQRYYLKTLRVYILNQHSASPRCAVLFGKILGVLTELRTLGTQNSNMCISLKLKNRKLPPFLEEIWDVAEVSTTKL
Take B1: under setting [1], the “Experiment #1 RLU” value came to 1.71 RLU and the “Experiment #2 RLU” value is 1.77 RLU.

B2: G(M)MD: EcR chimera: GAL4 DBD, Manduca sexta D and E domains, maize Dof1 activation domain; SEQ ID NO:136-137 (protein)
chain: MQQLYVDFFSPAFIRYLFAWYCFFCRCSPCCLVLLLQGSATMKLLSSIEQACDICRLKKLKCSKEKPKCAKCLKNNWECRYSPKTKRSPLTRAHLTEVESRLERLEQLFLLIFPREDLDMILKMDSLQDIKALLTGLFVQDNVNKDAVTDRLASVETDMPLTLRQHRISATSSSEESSNKGQRQLTVSTRMRPECVVPESTCKNKRREKEAQREKDKLPVSTTTVDDHMPAIMQCDPPPPEAARIHEVVPRFLTEKLMEQNRLKNVTPLSANQKSLIARLVWYQEGYEQPSEEDLKRVTQTWQLEEEEEEETDMPFRQITEMTILTVQLIVEFAKGLPGFSKISQSDQITLLKASSSEVMMLRVARRYDAATDSVLFANNQAYTRDNYRKAGMSYVIEDLLHFCRCMYSMSMDNVHYALLTAIVIFSDRPGLEQPLLVEEIQRYYLKTLRVYILNQHSASPRCAVLFGKILGVLTELRTLGTQNSNMCISLKLKNRKLPPFLEEIWDVAEVSTTKLELATAADPGKTATTTTTTTSEITTETGALEDSDSLAHLLLQPGTEDAEAVALGLGLSDFPSAGKAVLDDEDSFVWPAASFDMGACWAGAGFADPDPACIFLNLP
Take B2: the “Experiment #1 Fold Induction” value turned out to be 3.0 fold and the “Experiment #2 Fold Induction” value is recorded as 7.8 fold. Also, where the note is “+ 10 μM Teb”, the “Experiment #1 Luciferase” value was found to be 6.37 and the “Experiment #2 Luciferase” value amounted to 9.14. For the same molecule, under setting [1], the “Experiment #1 Luciferase” value came out at 2.14 and the “Experiment #2 Luciferase” value was 1.18.

B3: G(M)MC: EcR chimera: GAL4 DBD, Manduca sexta D and E domains, maize C1 activation domain; SEQ ID NO:134-135 (protein)
chain: MQQLYVDFFSPAFIRYLFAWYCFFCRCSPCCLVLLLQGSATMKLLSSIEQACDICRLKKLKCSKEKPKCAKCLKNNWECRYSPKTKRSPLTRAHLTEVESRLERLEQLFLLIFPREDLDMILKMDSLQDIKALLTGLFVQDNVNKDAVTDRLASVETDMPLTLRQHRISATSSSEESSNKGQRQLTVSTRMRPECVVPESTCKNKRREKEAQREKDKLPVSTTTVDDHMPAIMQCDPPPPEAARIHEVVPRFLTEKLMEQNRLKNVTPLSANQKSLIARLVWYQEGYEQPSEEDLKRVTQTWQLEEEEEEETDMPFRQITEMTILTVQLIVEFAKGLPGFSKISQSDQITLLKASSSEVMMLRVARRYDAATDSVLFANNQAYTRDNYRKAGMSYVIEDLLHFCRCMYSMSMDNVHYALLTAIVIFSDRPGLEQPLLVEEIQRYYLKTLRVYILNQHSASPRCAVLFGKILGVLTELRTLGTQNSNMCISLKLKNRKLPPFLEEIWDVAEVSTTKLPKAVRCTGGLFFFHRDTTPAHAGETATPMAGGGGGGGGEAGSSDDCSSAASVSLRVGSHDEPCFSGDGDGDWMDDVRALASFLESDEDWLRCQTAGQLA
B3: the “Experiment #1 Fold Induction” value is reported as 26.0 fold and the “Experiment #2 Fold Induction” value came to 17.8 fold. Also, for the setting “+ 10 μM Teb”, the “Experiment #1 Luciferase” value amounted to 53.20 and the “Experiment #2 Luciferase” value turned out to be 28.05. In addition, under setting [1], the “Experiment #1 Luciferase” value was 2.05 and the “Experiment #2 Luciferase” value is listed as 1.58.

B4: G(E)EV: EcR chimera: GAL4 DBD, European corn borer D and E domains, VP16; SEQ ID NO:124-125 (protein)
chain: MQQLYVDFFSPAFIRYLFAWYCFFCRCSPCCLVLLLQGSATMKLLSSIEQACDICRLKKLKCSKEKPKCAKCLKNNWECRYSPKTKRSPLTRAHLTEVESRLERLEQLFLLIFPREDLDMILKMDSLQDIKALLTGLFVQDNVNKDAVTDRLASVETDMPLTLRQHRISATSSSEESSNKGQRQLTVSTRMRPECVVPETQCAQKRKEKKAQREKDKLPVSTTTVDDHMPPIMQCDPPPPEAARILECLQHEVVPRFLSEKLMEQNRLKNIPPLTANQQFLIARLVWYQDGYEQPSEEDLKRVTQTWQSADEEDEDSDMPFRQITEMTILTVQLIVEFAKGLPGFSKISQPDQITLLKACSSEVMMLRVARRYDAVSDSVLFANNQAYTRDNYRKAGMAYVIEDLLHFCRCMYSMSMDNVHYALLTAIVIFSDRPGLEQPQLVEEIQRYYLNTLRVYIMNQHSASPRCAVIYAKILSVLTELRTLGMQNSNMCISLKLKNRKLPPFLEEIWDVKLAPPTDVSLGDELHLDGEDVAMAHADALDDFDLDMLGDGDSPGPGFTPHDSAPYGALDMADFEFEQMFTDALGIDEYGG
Consider B4, for which the “Fold Induction with Teb Relative to Receptor with EtOH” value (Example 24, Experiment 1) was 57 fold and the “Fold Induction with Teb Relative to Receptor with EtOH” value (Example 24, Experiment 2) is reported as 17 fold. Besides, the “Fold Induction with Teb Relative to Reporter with EtOH” value is, setting by setting: (Example 24, Experiment 1) 119 fold; (Example 24, Experiment 2) 99 fold. The “Normalized Average (EtOH)” value under setting [2] was found to be 7.601 and the “Normalized Average (EtOH)” value under setting [3] is 2.394.

B5: VG(M)M: EcR chimera: N-terminal VP16, GAL4 DBD, Manduca D and E domains; SEQ ID NO:142-143 (protein)
chain: MQQLYVDFFSPAFIRYLFAWYCFFCRCSPCCLVLLLQGSATMHVKLAPPTDVSLGDELHLDGEDVAMAHADALDDFDLDMLGDGDSPGPGFTPHDSAPYGALDMADFEFEQMFTDALGIDEYGGHVTSKLLSSIEQACDICRLKKLKCSKEKPKCAKCLKNNWECRYSPKTKRSPLTRAHLTEVESRLERLEQLFLLIFPREDLDMILKMDSLQDIKALLTGLFVQDNVNKDAVTDRLASVETDMPLTLRQHRISATSSSEESSNKGQRQLTVSTRMRPECVVPESTCKNKRREKEAQREKDKLPVSTTTVDDHMPAIMQCDPPPPEAARIHEVVPRFLTEKLMEQNRLKNVTPLSANQKSLIARLVWYQEGYEQPSEEDLKRVTQTWQLEEEEEEETDMPFRQITEMTILTVQLIVEFAKGLPGFSKISQSDQITLLKASSSEVMMLRVARRYDAATDSVLFANNQAYTRDNYRKAGMSYVIEDLLHFCRCMYSMSMDNVHYALLTAIVIFSDRPGLEQPLLVEEIQRYYLKTLRVYILNQHSASPRCAVLFGKILGVLTELRTLGTQNSNMCISLKLKNRKLPPFLEEIWDVAEVSTTKL
On to B5, for which, under setting [1], the “Experiment #1 RLU” value came out at 2.21 RLU and the “Experiment #2 RLU” value came to 2.52 RLU.

B6: G(E)MV: EcR chimera: GAL4 DBD, European corn borer D domain, Manduca sexta E domain, VP16; SEQ ID NO:126-127 (protein)
chain: MQQLYVDFFSPAFIRYLFAWYCFFCRCSPCCLVLLLQGSATMKLLSSIEQACDICRLKKLKCSKEKPKCAKCLKNNWECRYSPKTKRSPLTRAHLTEVESRLERLEQLFLLIFPREDLDMILKMDSLQDIKALLTGLFVQDNVNKDAVTDRLASVETDMPLTLRQHRISATSSSEESSNKGQRQLTVSTRMRPECVVPETQCAQKRKEKKAQREKDKLPVSTTTVDDHMPPIMQCDPPPPEAARILECLQHEVVPRFLSEKLMEQNRLKNIPPLTANQQFLIARLVWYQEGYEQPSEEDLKRVTQTWQLEEEEEEETDMPFRQITEMTILTVQLIVEFAKGLPGFSKISQSDQITLLKASSSEVMMLRVARRYDAATDSVLFANNQAYTRDNYRKAGMSYVIEDLLHFCRCMYSMSMDNVHYALLTAIVIFSDRPGLEQPLLVEEIQRYYLKTLRVYILNQHSASPRCAVLFGKILGVLTELRTLGTQNSNMCISLKLKNRKLPPFLEEIWDVAEVSTTKLAPPTDVSLGDELHLDGEDVAMAHADALDDFDLDMLGDGDSPGPGFTPHDSAPYGALDMADFEFEQMFTDALGIDEYGG
In the case of B6, the “Fold Induction with Teb Relative to Receptor with EtOH” value is, setting by setting: (Example 24, Experiment 1) 34 fold; (Example 24, Experiment 2) 16 fold. The “Fold Induction with Teb Relative to Reporter with EtOH” value (Example 24, Experiment 1) turned out to be 135 fold and the “Fold Induction with Teb Relative to Reporter with EtOH” value (Example 24, Experiment 2) was determined as 95 fold. In addition, the “Normalized Average (EtOH)” value is, setting by setting: under setting [2], 14.499; under setting [3], 2.537.
